In patent US20130195871A1 (AbbVie / Abbott, published 2013):

Experiments:
EGFR on the cell surface [1] = target: T1, EGFR on the cell surface (human, UniProt P00533 25-1210); assay: flow cytometry on cells, 2 ug/mL
T1 construct: whole, on cells
Protocol: (§1) Stable cell lines overexpressing a cell-surface antigen of interest or human tumor cell lines were harvested from tissue culture flasks and resuspended in phosphate buffered saline (PBS) containing 5% fetal bovine serum (PBS/FBS). Prior to staining, human tumor cells were incubated on ice with (100 μl) human IgG at 5 μg/ml in PBS/FCS. 1-5×10⁵ cells were incubated with antibody or DVD-Ig (2 μg/mL) in PBS/FBS for 30-60 minutes on ice. […] After 30 minutes incubation on ice, cells were washed twice and resuspended in PBS/FBS. Fluorescence was measured using a Becton Dickinson FACSCalibur (Becton Dickinson, San Jose, Calif.).
(§2) The geometric mean is the n root of the multiplication product of n fluorescent signals (a1×a2×a3 . . . an). With log-transformed data the geometric mean is used to normalize the weighting of the data distribution.

EGFR on the cell surface [2] = target: T1, EGFR on the cell surface; assay: flow cytometry on cells, 2 ug/mL, C-terminal VD
Protocol: as §1, §2

[3] = target: T2, ErbB3 on the cell surface (human, UniProt P21860 20-1342); assay: flow cytometry on cells, 2 ug/mL, N-terminal VD
T2 construct: whole, on cells
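Note: cells stained for 30 to 60 min on ice.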

Row | Binder | GEO MEAN (EGFR on the cell surface [1]) | GEO MEAN (EGFR on the cell surface [2]) | GEO MEAN [3]
1 | AB400 (antibody, V domains shown, parent antibody) VH: EVQLVESGGGLVQPGGSLRLSCAASGFSLTNYGVHWVRQAPGKGLEWLGVGWSGGNTDYNTPFTSRLTINKDNSKNTVYLQMNSLRAEDTAVYYCARALTWYDYEFAYWGQGTLVTVSS VL: DILLTQSPGTLSLSPGERATLSCRASQSIYTNIHWYQQKPGQAPRLLIKYASESISGIPDRFSGSGSGTDFTLTISRLEPEDFAVYYCQQNLNWPTTFGQGTKLEIKR | 439 |  | 
2 | DVD2297 (bispecific antibody, DVD-Ig, outer AB062 / inner AB400) VH: QVQLQQWGAGLLKPSETLSLTCAVYGGSFSGYYWSWIRQPPGKGLEWIGEINHSGSTNYNPSLKSRVTISVETSKNQFSLKLSSVTAADTAVYYCARDKWTWYFDLWGRGTLVTVSSASTKGPEVQLVESGGGLVQPGGSLRLSCAASGFSLTNYGVHWVRQAPGKGLEWLGVGWSGGNTDYNTPFTSRLTINKDNSKNTVYLQMNSLRAEDTAVYYCARALTWYDYEFAYWGQGTLVTVSS VL: DIEMTQSPDSLAVSLGERATINCRSSQSVLYSSSNRNYLAWYQQNPGQPPKLLIYWASTRESGVPDRFSGSGSGTDFTLTISSLQAEDVAVYYCQQYYSTPRTFGQGTKVEIKRTVAAPDILLTQSPGTLSLSPGERATLSCRASQSIYTNIHWYQQKPGQAPRLLIKYASESISGIPDRFSGSGSGTDFTLTISRLEPEDFAVYYCQQNLNWPTTFGQGTKLEIK |  | 106 | 135
3 | DVD2293 (bispecific antibody, DVD-Ig, outer AB063 / inner AB400) VH: EVQLVESGGGLVQPGGSLRLSCAASGFTFSIYSMNWVRQAPGKGLEWVSYISSSSSTIYYADSVKGRFTISRDNAKNSLYLQMNSLRDEDTAVYYCARDRGDFDAFDIWGQGTMVTVSSASTKGPEVQLVESGGGLVQPGGSLRLSCAASGFSLTNYGVHWVRQAPGKGLEWLGVGWSGGNTDYNTPFTSRLTINKDNSKNTVYLQMNSLRAEDTAVYYCARALTWYDYEFAYWGQGTLVTVSS VL: DIQMTQSPSSLSASVGDRVTITCQASQDITNYLNWYQQKPGKAPKLLIYDASNLETGVPSRFSGSGSGTDFTFTISSLQPEDIATYNCQQCENFPITFGQGTRLEIKRTVAAPDILLTQSPGTLSLSPGERATLSCRASQSIYTNIHWYQQKPGQAPRLLIKYASESISGIPDRFSGSGSGTDFTLTISRLEPEDFAVYYCQQNLNWPTTFGQGTKLEIK |  |  | 135
4 | DVD2295 (bispecific antibody, DVD-Ig, outer AB116 / inner AB400) VH: EVQLLESGGGLVQPGGSLRLSCAASGFTFSHYVMAWVRQAPGKGLEWVSSISSSGGWTLYADSVKGRFTISRDNSKNTLYLQMNSLRAEDTAVYYCTRGLKMATIFDYWGQGTLVTVSSASTKGPEVQLVESGGGLVQPGGSLRLSCAASGFSLTNYGVHWVRQAPGKGLEWLGVGWSGGNTDYNTPFTSRLTINKDNSKNTVYLQMNSLRAEDTAVYYCARALTWYDYEFAYWGQGTLVTVSS VL: QSALTQPASVSGSPGQSITISCTGTSSDVGSYNVVSWYQQHPGKAPKLIIYEVSQRPSGVSNRFSGSKSGNTASLTISGLQTEDEADYYCCSYAGSSIFVIFGGGTKVTVLGQPKAAPDILLTQSPGTLSLSPGERATLSCRASQSIYTNIHWYQQKPGQAPRLLIKYASESISGIPDRFSGSGSGTDFTLTISRLEPEDFAVYYCQQNLNWPTTFGQGTKLEIK |  | 317 | 80
